Source: patent US20230295310A1 (ABCELLERA BIOLOGICS, published 2023)

B1: mAb 286 (antibody, V domains shown)
VH: EVKLVESGGGVVRPGGSLRLSCAASGFTFDDYGMSWVRQAPGKGLEWVSGISWNGGSTGYADSVKGRFTISRDNAKNSLYLQMNSLRAEDTALYHCARDGVPVVKRRYYYYYMDVWGKGTTVTVSS
VL: EIVLTQSPDFQSVTPKEKVTITCRASQSIGSSLHWYQQKPDQSPKLLIKYASQSFSGVPSRFSGRGSGTDFTLTINSLEAEDAATYYCHQSGSLPQTFGQGTKVEIK
notes: VH and VL only
B2: mAb 290 (antibody, V domains shown)
VH: EVQLVESGGGVVRPGGSLRLSCAASGFTFDDYGMSWVRQAPGKGLEWVSGISWNGGSTGYADSVKGRFTISRDNAKNSLYLQMNSLRAEDTALYHCARDGVPVVKRRYYYYYMDVWGKGTTVTVSS
VL: EIVLTQSPDFQSVTPKEKITITCRASQSIGSSLHWYQQKPDQSPKLLIKYASQSFSGVPSRFSGSGSGTDFTLTINSLEAEDAATYYCHQSASLPQTFGQGTKVEIK
notes: VH and VL only
B3: mAb 306 (antibody, V domains shown)
VH: EVQLLESGGGLVQPGGSLRLSCAASGFTFNSYAMSWVRQAPGRGLEWVSAISGRKSTTYYADSVKGRFTISRDNSKNTLYLQMNSLRAEDTAVYYCAKLWNYYYYYMDVWGKGTTVTVSS
VL: SYELTQPLSVSVALGQTARITCGGNNIGSKDVHWYQQKPGQAPVLVIYRDSNRPSGIPERFSGSNSGNTATLTISRAQAGDEADYYCQVWDSSTAVFGGGTQLTAL
notes: VH and VL only
B4: mAb 318 (antibody, V domains shown)
VH: EGQLLESGGGLVQPGGSLRLSCAASGFTFSRYAMSWIRQAPGKGLEWVSVIDGSGGDKNYADSVKGRFTISRDNSKNSLYLLMNGLRVEDTAIYFCAKKFSYYYYYMDVWGKGTSVTVSS
VL: SYELTQPLSVSVALGQTARITCGGNNIGGKDVHWYQQKPGQAPVLVIYRDSNRPSGIPERFSGSNSGNTATLTISRAQAGDEADYYCQVWDSRTAVFGGGTQLTAL
notes: VH and VL only
B5: mAb 77 (antibody, V domains shown)
VH: EVQLVESGGGLVQPGGSLRLSCAASGFTFSNYWMSWVRQAPGKGLEWVANIKQDGSEKYYVDSVRGRFTISRDNAKKSLYLQMNSLRAEDTAVYYCARDNSNYAYWYFDIWGRGTLVTVSS
VL: DIQMTQSPSTLSVSVGDRVTITCRASQSIRKWLAWYQQKPGKAPKLLIFKASSLESGVPSRFSGSGSGTEFTLTISSLQPDDFATYYCQQYDTYSRTFGQGTKVEIK
notes: VH and VL only
B6: mAb 109 (antibody, V domains shown)
VH: QVQLVESGGGVVQPGRSLRLSCVASGFPFRSYGMHWVRQAPGKGLEWVAFIWYDGSNKYYADSVRGRFTISRDNFKKMVYLQMNSLRAEDTAVYYCARDLAGIYAFDVWGQGTVVTVSS
VL: EIVMTQSPATLSVSPGERATLSCRASQSVSSNLAWYQQKPGQAPRLLIYGASTRATGIPARFSGSGSGTEFTLTVSSLQSEDFAIYYCQQYNNWRPLTFGGGTKVEIK
notes: VH and VL only
B7: mAb 119 (antibody, V domains shown)
VH: EVQLVESGGGLVQPGRSLRLSCAASGFTFDDYTMHWVRQAPGKGLEWVSGISWNSGSIGYADSVKGRFTISRDNAKNSLYLQMNSLRAEDTALYYCSKDSSGYGYYLNYSLDVWGKGTTVTVSS
VL: EIVMTQSPATLSVSPGERATLSCRASQSVSNLAWYQQKPGQAPRLLIYGASTRATGIPARFSGSGSGTEFTLTISSLQSEDFAVYYCQQYNNWPHFGQGTRLQIK
notes: VH and VL only
B8: mAb 42 (antibody, V domains shown)
VH: QAQLVQSGSELKKPGASVKVSCKASGYTFTKHSMNWVRQAPGQGLEWMGWINTNTGNPTYAQGFTGRFVFSLDTSVTTAYLQISSLKAEDTAVYYCAREGDYDFWSGFFNFDYWGQGTLVTVSS
VL: DIQMTQSPSSLSASVGDRVTITCRASQGIRNDLGWYQQKPGKAPKRLIYAASSLQSGVPSRFSGSGSGAEFTLTISSLQPEDFATYYCLQHNSYPRTFGQGTKVEIK
notes: VH and VL only
B9: mAb 43 (antibody, V domains shown)
VH: QAQLVQSGSELKKPGASVKVSCKASGYTFTKHSMNWVRQAPGQGLEWMGWINTNTGNPMYAQGFTGRFVFSLDTSVTTAYLQISSLKAEDTAVYYCAREGDYDFWSGFFNFDYWGQGTLVTVSS
VL: DIQMTQSPSSLSASVGDRVTITCRASQGIRNDLGWYQQKPGKAPKRLIYAASSLQSGVPSRFSGSGSGAEFTLTISSLQPEDFATYYCLQHNSYPRTFGQGTKVEIK
notes: VH and VL only
B10: mAb 44 (antibody, V domains shown)
VH: QAQLVQSGSELKKPGASVKVSCKASGYTFTRHAMNWVRQAPGQGLEWMGWINTNTGNPTYAQGFTGRFVFSLDTSVSTAYLKISSLKAEDTAVYYCVREGDYDFWSGFFNFDYWGQGTLVTVSS
VL: DIQMTQSPSSLSASVGDRVTITCRASQGIRNDLGWFQQKPGKAPTRLIYAASSLQSGVPSRFSGSGSGAEFTLTISSLQPEDFATYYCLQHNSYPRTFGQGTKVEIK
notes: VH and VL only
B11: mAb 47 (antibody, V domains shown)
VH: QAQLVQSGSELKKPGASVKVSCKASGYTFTKHSMNWVRQAPGQGLEWMGWINTNTGNPTYAQGFTGRFVFSLDTSVTTAYLQISSLKAEDTAVYYCAREGDYDFWSGFFNFDYWGQGTLVTVSS
VL: DIQMTQSPSSLSASVGDRVTITCRASQGIRNDLGWYQQKPGKAPKRLIYAASSLQSGVPSRFSGSGSGTEFTLTISSLQPEDFATYYCLQHNSYPRTFGQGTKVEIK
notes: VH and VL only
B12: mAb 50 (antibody, V domains shown)
VH: QAQLVQSGSELKKPGASVKVSCKASGYTFTRHAMNWVRQAPGQGLEWMGWINTNTGNPTYAQGFTGRFVFSLDTSVTTAYLQISSLKAEDTAVYYCAREGDYDFWSGFFNFDYWGQGTLVTVSS
VL: DIQMTQSPSSLSASVGDRVTITCRASQGIRNDLGWFQQKPGKAPTRLIYAASSLQSGVPSRFSGSGSGAEFTLTISSLQPEDFATYYCLQHNSYPRTFGQGTKVEIK
notes: VH and VL only
B13: mAb 53 (antibody, V domains shown)
VH: QVQLVQSGAEVKKPGASVKVSCKASGYTFTSYDINWVRQATGQGLEWMGWMNPKSGKTGYAQKFQGRITMTRNTPISTVYMDLSSLRSEDTAVYYCAREGHYDFWTGYYSFDYWGQGTLVTVSS
VL: DIQMTQSPSSLSASVGDRVTITCRASQGIRNDLGWYQQTPGKAPKRLIYAASSLQSGVPSRFSGSGSGTEFTLTISSLQPEDFATYYCLQHYSYPYTFGQGTKLEIK
notes: VH and VL only
B14: mAb 55 (antibody, V domains shown)
VH: QVQLEQSGAEVKKPGASVKVSCKTSGYIFANYDINWVRQATGQGLEWMGWMNPKSGKAGYAQKFQGRVTMTSNTPINTAYMELSSLRSEDTAVYYCAREGHYDFWRGFYSFDYWGQGILVTVSS
VL: DIQMTQSPSSLSASVGDRVTITCRASQGIRNDLGWYQQKPGKAPKRLIYTASSLQSGVPSRFSGSGSGTEFTLTISSLQPEDFATYFCLQYNTYPYTFGQGTKLEIK
notes: VH and VL only
B15: mAb 67 (antibody, V domains shown)
VH: EVQLVESGGDLVQPGRSLRLSCAASGFTFDDCVIHWVRQAPGKGLEWVSGITWNSGRIGYADSVKGRFTISRDNAKNSLYLQMNSLRVEDTALYYCAKEGNYDFWSTYYRGYFDLWGRGTLVTVSS
VL: DIQMTQSPSSLSASVGDRVTITCRASQGIRNDLGWYQQKPGIAPKRLIYAASSLQGGVPLRFSGSGSGTEFTLTISSLQPEDFATYYCLQHNSYPYTFGQGTKLEIK
notes: VH and VL only
B16: mAb 71 (antibody, V domains shown)
VH: QVQLVQSGAEVRKPGASVKVSCKASGYTFTKYDVNWVRQAPGQGLEWMGWMNSNNGNIGYAQKFQGRVTMTRKTSISTAYMELSSLRSEDTAVYYCAREGHYDFWRGFYNFDYWGQGTLVTVSS
VL: DIQMTQSPSSLSASVGDRVTITCRASQDIKNDLGWYQQKPGKAPKRLIYAASSLQSGVPSRFSGSGSGTEFTLTISSLQPEDFATYYCLQHNFYPITFGQGTRLEIK
notes: VH and VL only

These binders were tested against T1, human CD3e/d (human, UniProt P07766 23-126; P04234 22-105) (assay: SPR (Carterra LSA), mAb on chip).
T1 construct: Bought soluble protein; also called hCD3e/d; human CD3/ed (Sino CT038-H2508H)
Protocol: (§1) High-throughput surface plasmon resonance (SPR) coupled kinetic experiments were performed on a Carterra LSA® instrument equipped with an HC-30M chip type (Carterra, USA). The instrument uses two microfluidic modules, a single-flow cell (SFC) and a 96 printhead, to deliver samples to the chip surface via back-and-forth cycling of a fixed sample volume. An up to 384-ligand array is generated by docking the MFC onto each of the four nested print block locations in a serial manner.
(§2) The purified mAbs were immobilized on a Carterra LSA® HC-30M chip by direct coupling. The chip surface was first activated by flowing a freshly prepared 1:1:1 activation mix of 100 mM MES pH 5.5, 100 mM S-NHS, 400 mM EDC for 7 min. mAbs diluted to 10 μg/mL in 10 mM NaOAc pH 4.25+0.01% TWEEN®20 were then injected and printed onto the chip surface simultaneously using the MFC printhead for 10 min. Finally, the chip surface was quenched by flowing 1 M ethanolamine for 7 min (to block the excess reactive esters), followed by 2 wash steps of 15 s each in 25 mM MES pH 5.5. In addition to expressed and purified mAbs, relevant benchmarks and negative control mAbs were also printed on the chip surface.
(§3) The data were analyzed using the Carterra Kinetics analysis software. Briefly, the data were referenced with the interstitial reference spots and double-referenced to a buffer cycle, and then fit globally to a 1:1 Langmuir binding model to determine their apparent association (ka) and dissociation (kd) kinetic rate constants and binding affinity constants (KD).

T1 sequence (P07766 23-126, chain 1 of 2): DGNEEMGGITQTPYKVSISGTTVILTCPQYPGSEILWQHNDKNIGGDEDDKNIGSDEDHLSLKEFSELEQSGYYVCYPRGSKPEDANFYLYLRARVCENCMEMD
T1 sequence (P04234 22-105, chain 2 of 2): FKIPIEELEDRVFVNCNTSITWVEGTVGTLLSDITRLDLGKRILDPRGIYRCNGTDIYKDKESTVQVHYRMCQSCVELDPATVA

With B1 as the binder, how does the Kd read?
Its Kd is 580 nM.

With B2 as the binder, how does the Kd read?
The Kd was 3200 nM.

Which Kd does the source give for B3 here?
Its Kd is 250 nM.

With B4 as the binder, how does the Kd read?
The Kd was 84 nM.

For B5, which Kd is on record?
Its Kd is 286 nM.

For B6, which Kd is on record?
Its Kd is 21.7 nM.

For B7, which Kd is on record?
Its Kd is 37.2 nM.

Each binder was assayed against T2, human CD3e/g (human, UniProt P07766 23-126; P09693 23-116) (assay: SPR (Carterra LSA), mAb on chip).
T2 construct: Bought soluble protein; also called hCD3e/g; human CD3e/g (Acro CDD-C52W4)
Protocol: as §1, §2, §3

T2 sequence (P07766 23-126, chain 1 of 2): as the sequence (P07766 23-126, chain 1 of 2) above
T2 sequence (P09693 23-116, chain 2 of 2): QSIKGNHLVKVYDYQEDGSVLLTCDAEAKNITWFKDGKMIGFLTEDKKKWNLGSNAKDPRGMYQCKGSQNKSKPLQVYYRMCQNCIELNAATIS

Which Kd does the source give for B8 here?
Its Kd is 19.4 nM.

Which Kd does the source give for B9 here?
Its Kd is 21.7 nM.

With B10 as the binder, how does the Kd read?
Its Kd is 19.1 nM.

How did the Kd turn out when B11 was run?
The Kd was 20.1 nM.

How did the Kd turn out when B12 was run?
Its Kd is 34.3 nM.

For B13, which Kd is on record?
The Kd was 258 nM.

For B14, which Kd is on record?
Its Kd is 85.7 nM.

For B15, which Kd is on record?
Its Kd is 18.6 nM.

With B16 as the binder, how does the Kd read?
Its Kd is 113 nM.
